The text below walks through data of publication PMC6374351, “The Fusion Activity of IM30 Rings Involves Controlled Unmasking of the Fusogenic Core” (Frontiers in Plant Science, 2019).

What all share (assay): SEC; Superdex 200 HR 16/60 GL, 4°C, 0.5 mL/min, 20 mM HEPES pH 7.6; apparent masses from Kav against marker proteins; apparent oligomeric state = extrapolated mass / calculated monomer mass (with His-tag)
Data set [1] has as its target IM30 α1-3 (helices 1-3) (Synechocystis sp. PCC 6803).
For data set [2], the target named is IM30 α1-4 (helices 1-4) (Synechocystis sp. PCC 6803).
Data set [3] deals with the molecule itself.

A word on the stoichiometry N: it is the number of molecules, sites or subunits per partner or assembly.

As for “IM30 α1-3 (helices 1-3) (domain or fragment)”, in data set [1], the stoichiometry N was 1.76.

On to “IM30 α1-4 (helices 1-4) (domain or fragment)”, for which the stoichiometry N in data set [2] is 2.2.

B1: inner membrane-associated protein of 30 kDa (IM30) wt, Synechocystis sp. PCC 6803 (natural protein, UniProt Q55707 1-267, looked up)
chain: MGLFDRLGRVVRANLNDLVSKAEDPEKVLEQAVIDMQEDLVQLRQAVARTIAEEKRTEQRLNQDTQEAKKWEDRAKLALTNGEENLAREALARKKSLTDTAAAYQTQLAQQRTMSENLRRNLAALEAKISEAKTKKNMLQARAKAAKANAELQQTLGGLGTSSATSAFERMENKVLDMEATSQAAGELAGFGIENQFAQLEASSGVEDELAALKASMAGGALPGTSAATPQLEAAPVDSSVPANNASQDDAVIDQELDDLRRRLNNL
notes: IM30 (Vipp1) of the cyanobacterium Synechocystis sp; PCC 6803, wild type, helices 1-7; the last residue is 267 (α4-7 = amino acids 147-267); Forms rings of variable size; also called Vipp1; full-length protein; source: heterologously expressed and purified (as in Fuhrmann et al., 2009a)
As to B1, the binding result in data set [3] was “binds”.
